What all share (test): cell_activity
In data set [1] the test system is ZFP-TF SBS 65918 R(-5)Q in F1 and F5 (Qm5 phosphate contact mutants) (artificial). Particulars: AAV6 SYN1, human iPSC-derived neurons, 32 days, ELISA; combined with 57890 >10-fold.
Data set [2] relates to ZFP-TF SBS 57930 (artificial). Particulars: AAV6 SYN1, human iPSC-derived neurons, 32 days, ELISA. In general terms: ELISA stands for enzyme-linked immunosorbent assay.
In data set [3] the test system is ZFP-TF SBS 57890 (artificial). Particulars: AAV9 hSYN1 in humanized tau mice, 6 wk; mouse tau ~81%; human iPSC neurons tau protein reduced 2-fold (p208).

Some results are limits rather than exact numbers.

On to “CGGCAGAAGGTGGGCGGTGGCGGCGGCG (double strand) [MAPT target site of 57930/65918]”, for which the activity (fold tau protein reduction) was more than 2 in data set [1] and more than 5 in data set [2]. “TGGTGCTGGAGCTGGTGGGTGGCGGAGA (double strand) [MAPT target site of 57890]”: the activity (% human tau mRNA repression) in data set [3] is 60.

(Values after patent publication US12318427.)
